1 molecule from article doi:10.1101/2025.04.30.25326597 can be followed below.

The experiment concerns the target BORCS5 L128Vfs*86, C-terminally GFP-tagged (human) (UniProt Q969J3). Briefly: co-IP; GFP-Trap agarose precipitation of C-terminally GFP-tagged BORCS5 constructs from lysates of transfected cells 24 h after transfection (10 mM Tris-Cl pH 7.5, 150 mM NaCl, 0.5 mM EDTA, 1% Triton X-100, 10% glycerol), 2 h at 4°C, five washes; endogenous SNAPIN and BORCS7 detected by immunoblotting; GFP alone as control. Background: A western blot detects proteins with antibodies after separation by electrophoresis.

B1: BORCS7 (natural protein)
chain: MMATGTPESQARFGQSVKGLLTEKVTTCGTDVIALTKQVLKGSRSSELLGQAARNMVLQEDAILHSEDSLRKMAIITTHLQYQQEAIQKNVEQSSDLQDQLNHLLK
For B1, the percent less co-immunoprecipitated than with WT is 30%.
